± gives the uncertainty stated by the source.
Experiment: protein stability index of a GFP-peptide fusion (yeast GPS) (PSI 1-4); higher = more stable; sorted into four equal gates, so the index is relative within each strain
Conditions: ubr1∆
Outline: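 Each library plasmid carries Cherry plus GFP with a tiled 17-residue yeast protein peptide fused downstream, and the pooled library was carried in yeast. Mid-log cultures in leucine-free medium were sorted into four equal gates by GFP/Cherry ratio. Reads from Illumina sequencing of PCR-amplified plasmids from each gate were assigned to strains by barcodes. Per peptide, the protein stability index was computed as the summed products of gate read frequency and gate number.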

| Sequence | protein stability index |
| --- | --- |
| ATGNESQDATKVDATPE [YLR335W/NUP2] | 2.94 ± 0.099 |
| ATHLPKDNVEHLVMRAI [RPN9] | 2.9 ± 0.06 |
| ATPQEAQFYLGKRIAYV [RPL33B] | 2.43 ± 0.077 |
| ATSKTSEMLAKYSDILL [CDC53] | 3.07 ± 0.048 |
| ATTQDQVASIIESFVEL [NUT2] | 2.49 ± 0.054 |
| ATYSNEFKCMSVITAQQ [YGL100W/SEH1] | 2.01 ± 0.031 |
| AVALAASDLVLIVIDVV [SNU114] | 2.13 ± 0.05 |
| AVAVGNVEMEEDVLVNQ [RPL1A] | 2 ± 0.059 |
| AVDKVISGYKKFSSTSR [RPT1] | 3.74 ± 0.14 |
| AVHVTVRGPKAEEILER [RPL11A] | 3.05 ± 0.074 |
| AVINIRDDGKRELLVEG [RPO31] | 3.14 ± 0.1 |
| AVKNKYNVGKQLSNEII [PRP28] | 2.3 ± 0.069 |
| AVKYGLNHVVSLIENKK [RPL8B] | 2.01 ± 0.047 |
| AVPLQIVSPQSNKPCMG [RPO21] | 1.78 ± 0.035 |
| AVPRDELGRSNYGMIAI [FAS1] | 3.33 ± 0.22 |
| AVRLILPGELAKHAVSE [HTB1] | 3.28 ± 0.064 |
| AWRTLVGVSHTNEEVRN [CYT1] | 2.18 ± 0.094 |
| AYKFEEVSKDLIAVYYS [RPB8] | 3.11 ± 0.055 |
| AYRTDVIQALGGIETIL [PRP8] | 1.45 ± 0.054 |
| CAECSSKLSLSRTDAVR [RPC10] | 2.35 ± 0.05 |
| CAEGIFVVKLDTVDRLI [GAL11] | 2.62 ± 0.092 |
| CAINSKSRGSDLQYLGE [RRP6] | 3.2 ± 0.053 |
| CARFLGNRGFSIGINDV [RPO31] | 2.88 ± 0.21 |
| CDSYLDADKELSFEINV [BRR2] | 2.7 ± 0.047 |
| CEAAVEISKKDFVRKGG [SIR3] | 3.25 ± 0.064 |
| CELLKLTNEDPPGLMYL [SSN2] | 3.36 ± 0.11 |

| Sequence | protein stability index |
| --- | --- |
| CELQVETYGSMEMSEKI [RPN5] | 2.84 ± 0.077 |
| CESCSTVLCTPTGGKAK [RPS27B] | 2.51 ± 0.053 |
| CGAGVFLANHKDRLYCG [RPS31] | 2.5 ± 0.2 |
| CGAWEPAITIEKLKQFS [SIR3] | 1.54 ± 0.072 |
| CGFWQPAWRVWLNFLRG [PRP8] | 2.35 ± 0.062 |
| CHDELKALPMLEQVEFE [MED4] | 3.29 ± 0.12 |
| CILRFLQLPIEDKFLYG [SWI3] | 1.18 ± 0.077 |
| CKDDVQLQKILESLKPI [MTW1] | 2.87 ± 0.07 |
| CKEVGITAVHVKIRATG [RPS14A] | 1.89 ± 0.035 |
| CKLFLADVFTDDDLFET [YCG1] | 2.59 ± 0.038 |
| CKSLISENEDTKDLLSK [CSE2] | 3.22 ± 0.12 |
| CKVVAEMIRGRSPEEIR [SKP1] | 1.49 ± 0.11 |
| CLEDPEKPFNENRFQDT [POP4] | 3.03 ± 0.099 |
| CLFENDLQRLKPLGLDR [ITC1] | 3.09 ± 0.042 |
| CSFITQDKMFVSNPIRK [FAS1] | 1.22 ± 0.042 |
| CSRIIKIDKPIRTQVNT [RGR1] | 2.1 ± 0.039 |
| CTLTADGAYALSASWDK [ASC1] | 3.19 ± 0.038 |
| CVKAIEALFQSRPDILS [YCG1] | 3.05 ± 0.087 |
| CVQLIKCLVEKSICFEN [SWI1] | 2.74 ± 0.15 |
| CVRVQLIKNGKKVTAFV [RPS23A] | 3.13 ± 0.088 |
| CVVSTDSTNLSDDAAQF [ECM29] | 3.04 ± 0.078 |
| CVYVPNFNASLQLTTNT [SNM1] | 2.02 ± 0.065 |
| CYFRDFEYCRIDGSTSH [ISW2] | 1.88 ± 0.042 |
| CYVGLLTAIPILLEPIY [SNU114] | 1.34 ± 0.038 |
| DACPLDNQPWQLARCGR [HRT1] | 2.61 ± 0.059 |
| DADEKSSNLYETIIEAD [YJR042W/NUP85] | 3.13 ± 0.082 |

| Sequence | protein stability index |
| --- | --- |
| DADGDIDMGEDKENVPV [DPB4] | 3.66 ± 0.13 |
| DALQDVEESSEKKQKTE [DPB4] | 3.18 ± 0.052 |
| DANRNANNIVNIVSDAG [GRR1] | 2.97 ± 0.067 |
| DATFAGHSLGEYAALAS [FAS1] | 2.49 ± 0.073 |
| DCENFFNYVQECPAIPI [YJL039C/NUP192] | 2.99 ± 0.05 |
| DDDAVRREVQIQLQEFL [NSL1] | 3.45 ± 0.089 |
| DDDDNNESSSNTTVISD [DIS3] | 2.91 ± 0.05 |
| DDDKKPDDDKIVPLTEG [RPT1] | 3.32 ± 0.064 |
| DDDLFETLVLSYFSPIN [YCG1] | 1.35 ± 0.032 |
| DDDNSNVDYYNVAHRIK [SNF2] | 3.23 ± 0.038 |
| DDEEYDYNDVEVNSKKK [BRR2] | 3.33 ± 0.036 |
| DDFDMLFGENDTSTQAY [NUT1] | 3.2 ± 0.055 |
| DDFLSKKRKAGRPRGRP [SNF2] | 2.89 ± 0.1 |
| DDIINNDEPSHKKIKVA [SIR2] | 2.87 ± 0.042 |
| DDLERLKKIRAHRGIRH [RPS18A] | 1.31 ± 0.18 |
| DDRDHFGKKRLDLAGPL [RPB2] | 3.31 ± 0.16 |
| DDRYGYQLYTSNPSGNY [PRE9] | 3.1 ± 0.05 |
| DDSFSLLRIQMLLCVSY [PCI8] | 2.42 ± 0.034 |
| DDVRRAAVIALGFVLLR [RPN2] | 1.8 ± 0.082 |
| DDVVVLTGEAEIEQPVT [FAS1] | 2.98 ± 0.099 |
| DDYYKEIIGGGSKSASK [ISW2] | 2.69 ± 0.086 |
| DEEMLTSCTIPKAVVDH [GAL11] | 2.9 ± 0.076 |
| DEEMTISQKLHDSILHS [RRP43] | 2.92 ± 0.035 |
| DEEYPVKVKVSYQKLLK [PRP8] | 2.6 ± 0.054 |
| DEFYINVDKNLNEIKEH [RPN14] | 2.92 ± 0.067 |
| DEIDAALDFRNVSIVAN [SMC4] | 1.54 ± 0.051 |

| Sequence | protein stability index |
| --- | --- |
| DEPDEQGNPKKRPGKLS [CYT1] | 3.44 ± 0.089 |
| DESTIKRIKPNTEITQK [ECM29] | 2.91 ± 0.044 |
| DEYLGSHTDQPANVLLV [NNF1] | 2.92 ± 0.13 |
| DFDDSTAQEINFKMLVL [IRR1] | 2.9 ± 0.054 |
| DFDLLNKTLTFETETEV [FAS1] | 3.3 ± 0.051 |
| DFGFDLDIEKEAPAGNI [MCD1] | 3.3 ± 0.15 |
| DFIDTATRHVLMRQGVL [RPS3] | 2.98 ± 0.04 |
| DFIKFDQIAVCEISGSI [BRN1] | 2.82 ± 0.076 |
| DFREKALYIAMMTRRVV [RET1] | 1.37 ± 0.074 |
| DFSARTVISGDPNLELD [RPO21] | 2.47 ± 0.13 |
| DFYVVMNRPGARVTRRK [RPL11A] | 3.32 ± 0.11 |
| DGEGKVDSISLHKIFYK [YCG1] | 2.94 ± 0.063 |
| DGGLFTLFVRDQDSAVV [QCR2] | 3.32 ± 0.057 |
| DGHLQFLNDVIPTTKNL [DLS1] | 3.04 ± 0.073 |
| DGSQQNLQQDKTNFQDV [REC8] | 3.3 ± 0.038 |
| DHKRFIVFHNEFSEHTF [DIS3] | 3.02 ± 0.038 |
| DIFSNLSSDDLLGKESF [YCS4] | 2.86 ± 0.034 |
| DILQITKKPLMVKNVKP [SIR4] | 2.63 ± 0.062 |
| DILSQILYGLVDKGAIM [YJL039C/NUP192] | 2.79 ± 0.28 |
| DISATQLPKQLWRNFCR [ITC1] | 2.8 ± 0.036 |
| DIWSISKKRQAEKLVPL [YML031W/NDC1] | 2.55 ± 0.062 |
| DKDSTKEVASLPNKSTI [FAS2] | 3.21 ± 0.14 |
| DKELRKTKFQYKFLDQN [YIL149C/MLP2] | 2.98 ± 0.059 |
| DLAERASELDESKDSIQ [SMC3] | 3.17 ± 0.06 |

Source: the supplement of paper PMC9732359
